Reference: patent US20150024957, “Methods and Devices for Detection and Measurement of Analytes” (THE UNIVERSITY OF TOLEDO, published 2015)

B1: APT1 (15-mer thrombin aptamer) (ssDNA)
DNA: GGTTGGTGTGGTTGG
modifications: 5'-NH2-(CH2)6
B2: APT2 (34-mer thrombin aptamer) (ssDNA)
DNA: CTATCAGTCCGTGGTAGGGCAGGTTGGGGTGACT
modifications: 5'-NH2-(CH2)6

Target: Bovine serum albumin (BSA) (Bos taurus, UniProt P02769 P02769:25-607)
Assay: SPR; 400 nM BSA; minimal effect on response of aptamer sensor
Conditions: tags: Sigma Aldrich
Procedure: Non-coated (i.e., no gold) SensiQ base sensors were custom modified with the developed gold based SPR sensing surfaces. Specifically, freshly prepared aptamer-immobilized gold substrates were coupled to the stripped sensors with index matching optical oil. This was followed by then loading of 100 μL 1 M ethanolamine (EA) at a flow rate of 20 μL/min to block the non-occupied MPA sites activated by the EDC/NHS, followed by an injection of 100 μL of 100 mM phosphoric acid (PPA) at 50 μL/min to remove the non-specific binding. The running buffer was 0.1 M pH 7.2 PBS. The sensor was first normalized with the buffer for 10 min, then the thrombin sample (25 μL) at concentrations of 5 nM, 25 nM, 50 nM, 250 nM 500 nM, 1000 nM, 2000 nM were loaded at 5 μL/min. Samples with BSA were all prepared with 400 nM BSA. All data was recorded at 290 s, 300 s, and 310 s after the sample injection and averaged. Sensor regeneration was performed by the injection of 100 μL PPA at 50 μL/min followed by washing with the running buffer.
Adding BSA to the sample had minimal effect on the SPR response for the aptamer modified sensors, indicating a good selectivity of the sensor toward thrombin. This is in contrast to the bare Au sensor, which experienced a significant change between the thrombin samples with, and without, BSA. […]

Sequence of Bovine serum albumin (BSA) (P02769 25-607, one chain of several): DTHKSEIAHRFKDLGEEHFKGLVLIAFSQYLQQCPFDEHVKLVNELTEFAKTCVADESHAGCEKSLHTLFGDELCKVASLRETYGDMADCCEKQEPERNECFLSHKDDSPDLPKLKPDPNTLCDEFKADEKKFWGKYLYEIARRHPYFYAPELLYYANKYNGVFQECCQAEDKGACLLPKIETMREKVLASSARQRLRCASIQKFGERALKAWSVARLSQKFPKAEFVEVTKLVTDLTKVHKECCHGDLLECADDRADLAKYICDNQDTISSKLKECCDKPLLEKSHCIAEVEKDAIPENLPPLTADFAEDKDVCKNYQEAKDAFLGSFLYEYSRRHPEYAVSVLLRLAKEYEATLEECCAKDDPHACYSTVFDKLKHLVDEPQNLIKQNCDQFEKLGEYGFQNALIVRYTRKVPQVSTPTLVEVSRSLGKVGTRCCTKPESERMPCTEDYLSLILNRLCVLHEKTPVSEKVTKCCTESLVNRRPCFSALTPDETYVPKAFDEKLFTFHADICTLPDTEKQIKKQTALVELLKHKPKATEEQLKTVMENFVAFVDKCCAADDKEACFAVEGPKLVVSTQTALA

| Binder | binding result |
| --- | --- |
| B1 | no binding |
| B2 | no binding |
